From article PMC8176726 come the findings set out here.

Data set [1] relates to His6-CssR (Corynebacterium glutamicum RES167). Description: EMSA. The conditions noted are these: apparent KD; EMSA: 10 mM Tris-HCl pH 7.4, 5 mM MgCl2, 50 mM KCl, 5% glycerol, 0.1% NP40, 1 ug poly(dI:dC), 0.5 mM EDTA, 20 ng DNA in 20 ul, room temperature 30 min.
For data set [2], the system named is T1, His6-CssR (Corynebacterium glutamicum RES167), ORF:46f2a94e.
T1 sequence: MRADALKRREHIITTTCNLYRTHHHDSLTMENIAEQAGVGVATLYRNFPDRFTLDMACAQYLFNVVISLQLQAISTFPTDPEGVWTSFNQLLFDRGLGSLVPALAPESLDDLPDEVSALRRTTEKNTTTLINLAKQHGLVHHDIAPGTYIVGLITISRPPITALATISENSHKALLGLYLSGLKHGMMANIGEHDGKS
Description: EMSA. To be noted: EMSA: 10 mM Tris-HCl pH 7.4, 5 mM MgCl2, 50 mM KCl, 5% glycerol, 0.1% NP40, 1 ug poly(dI:dC), 0.5 mM EDTA, 20 ng DNA in 20 ul, room temperature 30 min. In general terms: In EMSA bound probe runs differently from free probe, usually more slowly.

The test system is the same in data set [3]. Description: DNase I footprinting. To be noted: EMSA: 10 mM Tris-HCl pH 7.4, 5 mM MgCl2, 50 mM KCl, 5% glycerol, 0.1% NP40, 1 ug poly(dI:dC), 0.5 mM EDTA, 20 ng DNA in 20 ul, room temperature 30 min.
Data set [4] has as its target His6-CssR (C. glutamicum stress-sensing regulator, NCgl1578) (Corynebacterium glutamicum RES167). Description: SEC; Superdex 75 10/300 GL, 50 mM potassium phosphate pH 7.4, 0.15 M NaCl; calibrated with a low molecular weight gel filtration kit (Kav versus log molecular weight); native mass 52 kDa. (Size exclusion chromatography separates by hydrodynamic size, large species first.)

With 131-bp PcssR, the Kd in data set [1] was found to be 17 nM.
Turning to “AACACCGCGAATTATAGACTGAACTGGTACTTGGGAAGCTTTTTATAGTCATATGCGTTGAGATACGTGGACGACAAAGCACCAGTTAGTTGCCTTCCCAGTCCAGCCCACATCCGATTTCTAAATTAGGAGCACATC (double strand) [mtr promoter]”, the binding result in data set [2] was “no binding”.
Consider “CGTAATTATTTCCGCGACAAGCTATTTGCAAGCTATGTGCAGGCTCATTGCACAAGTTCAGCGCGGAGACACGTCCTAAAAAATACTTATGAAATTATGTTCGACACCGAAATGTCACCTGAAACTTCAACCAAGCCGCCAGTGCACCTATTCCACAAACCAAAAAATCCGCCAACACGAATGCGGCGGATTTTTAAGATGTACAGG (double strand) [mshC promoter]”, for which the binding result in data set [2] is listed as “no binding”.
“CGTTTTAGTGCGTCTGCTCTCATGTTGTTGTCCTCTAGTTGACAGCGGGGGTGGTGGTGGTCCTAAAATAGCCTACGATAACTGATAGTGTTTCCTCCACTTACGGAAGAAGATACATGAATACCCCTCTTTTGAGAAGCTCTGGGCTCTCCATCCGCGACACACCCTTCGCCGATGTTGAGATAGCTCCAGACAGCGGACTCAC (double strand) [PcssR footprint fragment]”: the binding result in data set [3] is reported as “binds”.
Consider “GAAGTTTTTCAAAGTGTCTGACGTTGAAAACGGTGAGTTCACAACTAGGGTGAATGGTGCACGTGATGCTGCACTTTTACGTTTACTACTTTGAGGGAAAC (double strand) [trx promoter]”, for which the binding result in data set [2] was “no binding”.
Take “GATCACCGCATGTGAAACAAGCGGATACGCAATGAGCATCCCCCACGCCCACTGCACATTAAACACCCAATTCAACACCGCAAAACCCACCAAAAACAGCAGCGTCGCGATCACACAAGCAGCGTCAGATCTTTGCGGCATAGCGCCATC (double strand) [mrx1 promoter]”: in data set [2], the binding result is on record as “no binding”.
Regarding “GGTATTGGGCGCATGCCATGTCCAGTGTGAAGCGATCGGGGAAGTTTCGGTATAAAGTTGCAACACCCACTCCTGCCTGTTCTGCAATGTTTTCCATGGTGAGCGAATCGTGATGGTGTGTGCGGTAGAG (double strand) [131-bp cssR coding region control]”, in data set [2], the binding entry is on record as “no binding”.
“GTTGTTGTCCTCTAGTTGACAGCGGGGGTGGTGGTGGTCCTAAAATAGCCTACGATAACTGATAGTGTTTCCTCCACTTACGGAAGAAGATACATGAATACCCCTCTTTTGAGAAGCTCTGGGCTCTCCAT (double strand) [131-bp PcssR]”: in data set [2], the Kd stood at 17 nM and the binding entry was “binds”.
Broadly, the stoichiometry N is the number of molecules, sites or subunits per partner or assembly. As to “His6-CssR (C. glutamicum stress-sensing regulator, NCgl1578) (natural protein)”, the stoichiometry N in data set [4] came out at 2.
